Measured values: patent US10053447B2, “Fluorescent compounds” (Pierce Biotechnology, Inc, priority 2010, dated 2018)

Key:
[1] = Storage stability at 50° C. under argon; format: physicochemical
Procedure: (§1) The inventive compounds were evaluated for stability. All compounds were packed under argon in plastic vials. The vials sere sealed with a drying pad in an aluminium coated pouch, and then stored at 50° C. for seven days. The results of the stability study for selected compounds are shown below:
Purity was determined based on ester activity.
as §1, with “stability compared to commercial dyes.” for “stability.”, “argon as 1 mg portions” for “argon”, “14” for “seven”
The inventive compound 755 Compound 1 (isomer 1)-NHS was evaluated for stability. The compound was packed under argon in plastic vials. The vials sere sealed with a drying pad in an aluminium coated pouch, and then stored at 50° C. for 14 days. Purity was determined by HPLC before and after storage.

streptavidin (SA) = streptavidin (SA) (Streptomyces avidinii, UniProt P22629); assay: Labeling efficiency (degree of labeling, mole dye to mole protein ratio) of streptavidin; settings: for Compound/Protein SA in PBS purified by PDRR / Compound/Protein SA in PBS purified by gel filtration: PBS pH 7.2; for Compound/Protein SA in PBS purified by PDRR / Compound/Protein SA in PBS purified by gel filtration / Compound/Protein SA in borate purified by gel PDRR / Compound/Protein SA in borate purified by gel filtration: molar excess given in the label; for Compound/Protein SA in borate purified by gel PDRR / Compound/Protein SA in borate purified by gel filtration: borate buffer pH 8.5
Procedure: Inventive and commercial compounds, each as the NHS ester, were conjugated to goat anti-mouse (GAM), goat anti-rabbit (GAR) antibodies, and streptavidin (SA). GAM, GAR, and SA, at 10 mg/ml in phosphate buffered saline (PBS), were dialyzed against 50 mM borate buffer, pH 8.5. The compounds were reconstituted in dimethylformamide (DMF) at 10 mg/ml and combined at 2×, 4×, 5×, 7.5×, or 10× molar excess with GAM, GAR, or SA for 2 h at room temperature to label the antibodies or SA.
The labeled compounds, also termed dyes or labels, were subjected to PDDR to remove the unlabeled (free) compound; 100 μl of the packed resin was used per mg of protein purified. The purified antibody-labeled dyes were then diluted 1:50 in PBS and scanned for absorbance from 700 nm to 230 nm to determine the protein concentration, and to determine the mole dye to mole protein ratio. Each conjugate was diluted 1:10 in 50% glycerol and heated in the presence of 10 mM dithiothreitol (DTT) for 5 min at 95° C., then separated by electrophoresis on polyacrylamide gels in the presence of sodium dodecyl sulfate (SDS-PAGE). The gels were scanned using the Typhoon 9400 Imager to verify removal of the unconjugated compound. Labeling efficiency was compared, with results showing degree of labeling below.
Compounds 1, 2, and 3, each as the NHS ester, and DyLight 649-NHS were conjugated to goat anti-mouse (GAM) and goat anti-rabbit (GAR) antibodies. GAM and GAR, at a concentration of 10 mg/ml in phosphate buffered saline (PBS), were dialyzed against 50 mM borate buffer, pH 8.5. The compounds were reconstituted in dimethylformamide (DMF) at 10 mg/ml. To label the antibodies, the compounds were added at 2.5× molar excess and 5× molar excess for 2 h at room temperature. Streptavidin (SA) was reconstituted in PBS buffer, pH 7.2, and 50 mM borate buffer, pH 8.5, and labeled with 2.5× molar excess and 4× molar excess of the compound.
The antibody-labeled compounds, also termed dyes or labels, were subjected to gel filtration chromatography (15 cm×0.8 cm columns) or to the PDDR to remove the unlabeled (free) compound; 100 μl of the packed resin was used per mg of protein purified. The purified antibody-labeled dyes were then diluted 1:100 in PBS and scanned for absorbance from 700 nm to 230 nm to determine the protein concentration, and to determine the mole dye to mole protein ratio. Each conjugate was diluted 1:10 in 50% glycerol and heated in the presence of 10 mM dithiothreitol (DTT) for 5 min at 95° C., then separated by electrophoresis on polyacrylamide gels in the presence of sodium dodecyl sulfate (SDS-PAGE). The gels were scanned using the Typhoon 9400 Imager to verify removal of the unconjugated compound. Labeling efficiency was compared using labeling of the compounds to GAM antibody at a 2.5× molar excess of compound, with results shown below.
Labeling efficiency was also compared using labeling of the dyes to streptavidin (SA) at either a 2.5 fold or a 4 fold molar excess of the dye, with SA in PBS, pH 7.2, and borate buffer, pH 8.5.
650 Compound 1 (isomer 2)-TFP, 650 Compound 1 (isomer 1)-TFP, 650 Compound 1 (isomer 2)-TFP, 650 Compound 1-NHS, and DyLight 649-NHS were conjugated to GAM, GAR, and SA. GAM and GAR, at a concentration of 10 mg/ml in phosphate buffered saline (PBS), were dialyzed against 50 mM borate buffer, pH 8.5. The compounds were reconstituted in dimethylformamide (DMF) at 10 mg/ml and used to label antibodies at 5× molar excess of compound for two hours at room temperature to label the antibodies. SA was reconstituted in 50 mM borate buffer, pH 8.5, and combined with 4× molar excess to label the SA.
The antibody-conjugated and SA-conjugated compounds, also termed dyes or labels, were subjected to the PDDR to remove the unlabeled (free) compound. The purified antibodies and SA were then diluted 1:25 in PBS and scanned for absorbance from 700 nm to 230 nm to determine the protein concentration, and to determine the mole dye to mole protein ratio. […]

[2] = Spectral properties of the dyes compared with commercially available dyes; format: physicochemical; settings: reactive ester form of the dye
U2OS cells; A550 cells = assay: Immunofluorescence cell based assays, summary statements; parameters: species or system human; settings: GAM and GAR conjugates
Procedure: The inventive compounds and commercial dye were evaluated for immunofluorescence in cell based assays using the following protocol. Plates containing U2OS cells (human osteosarcoma cell line) were fixed in 4% paraformaldehyde in PBS/0.1% Triton X-100 for 15 min at room temperature. The cells were then permeabilized with 2% BSA in PBS/0.1% Triton X-100 for 30 min at room temperature. Diluted primary antibodies in PBS/0.1% Triton X-100 were added to the plates and incubated overnight at 4° C. The plates were washed 3×100 μl with PBS. Based on the calculated protein concentrations, the conjugates were diluted to 4 μg/ml (1:250 from 1 mg/ml stock) in PBS/0.1% Triton X-100 and added to the plates (50 μl/well) and incubated 1 h in the dark at room temperature. The plates were washed 3×100 μl with PBS. One hundred μl of 2 μg/ml Hoechst dye in PBS was added per well. The plates were then scanned on an ArrayScan® Plate Reader for imaging and quantitation.
The inventive compounds and commercial dyes were evaluated for immunofluorescence in cell based assays using the following protocol. Plates containing A550 cells (adenocarcinoma human alveolar basal epithelial cells, P5, Sep. 23, 2010) and stored at −80° C. were placed at 50° C. for 30 min. The storage buffer (PBS) was removed and then the cells were permeabilized for 15 min (100 μl/well) with 0.1% Triton-X100 in 1×PBS buffer. The plates were blocked for 30 min in 2% BSA in 1×PBS-0.1% Triton-X100 and then incubated with primary antibodies diluted in 2% BSA in 1×PBS, 0.1% Trion-X100, overnight at 4° C. […] The remaining wells were incubated in blocking buffer only (no primary antibody). After overnight incubation, the antibody solution was removed from the wells, and the plates were washed with PBS-Tween (2×100 μl/well). The labeled secondary antibody conjugates, diluted to 4 μg/ml in PBS were added to corresponding wells and incubated for 1 h at room temperature (about 20° C. to about 22° C.). The plates were washed 3×100 μl/well with PBS and Hoechst stain diluted 1 μg/ml in PBS were added to each well (100 μl/well) of each plate. The plates were then scanned on the Thermo Scientific ArrayScan® HCS Reader for imaging and quantitation.

[3] = unit size 1 mg, 50° C. for seven days, purity based on ester activity
[4] = amount 1 mg, 50° C. for 14 days (650 series)

Purity at day 1 [1, 3] [%] | Purity at day 7 [1, 3] [%] | Compound | Compound/Protein SA in PBS purified by PDRR (streptavidin (SA)) | Compound/Protein SA in PBS purified by gel filtration (streptavidin (SA)) | Compound/Protein SA in borate purified by gel PDRR (streptavidin (SA)) | Compound/Protein SA in borate purified by gel filtration (streptavidin (SA)) | also measured
97 | 96 | COCCN1/C(=C/C=C/C2=[N+](CCCCCC(=O)Oc3c(F)c(F)cc(F)c3F)c3ccc(S(=O)(=O)[O-])cc3C2(C)CCCS(=O)(=O)O)C(C)(CCCS(=O)(=O)O)c2cc(S(=O)(=O)O)ccc21 (single isomer, unassigned) [550 Compound 1 (isomer 1)-TFP] | – | – | – | – | –
– | – | Alexa 647-SA-(2.5X): Alexa 647 conjugated to streptavidin (SA) [reference compound] | 3.5 | 3.9 | 2.4 | 2.6 | Compound/Protein SA in borate purified by gel PDRR (streptavidin (SA); listed as Alexa647-SA-4X): 3.4; Compound/Protein SA in borate purified by gel filtration (streptavidin (SA); listed as Alexa647-SA-4X): 3.9
– | – | COCCN1/C(=C/C=C/C=C/C2=[N+](CCCCCC(=O)Oc3c(F)c(F)cc(F)c3F)c3ccc(S(=O)(=O)[O-])cc3C2(C)CCCS(=O)(=O)O)C(C)(CCCS(=O)(=O)O)c2cc(S(=O)(=O)O)ccc21 (stereo not shown) [650 Compound 1-TFP] | – | – | – | – | Purity at day 1 [1, 4]: 98%; Purity at day 14 [1, 4]: 97%; Emission (Em) [2]: 672 nm; Excitation (Ex) [2]: 654 nm; ε [2]: 250,000 M−1cm−1
– | – | COCCN1/C(=C/C=C/C=C/C2=[N+](CCCCCC(=O)Oc3c(F)c(F)cc(F)c3F)c3ccc(S(=O)(=O)[O-])cc3C2(C)CCCS(=O)(=O)O)C(C)(CCCS(=O)(=O)O)c2cc(S(=O)(=O)O)ccc21 (single isomer, unassigned) [650 Compound 1 (isomer 2)-TFP] | – | – | – | – | SA (4X) Average (mole dye to mole protein ratio) (streptavidin (SA); TFP or NHS ester, 4X molar excess, borate buffer pH 8.5, PDRR): 2.42
99 | 97 | COCCN1/C(=C/C=C/C2=[N+](CCCCCC(=O)NCCN3C(=O)C=CC3=O)c3ccc(S(=O)(=O)[O-])cc3C2(C)CCCS(=O)(=O)O)C(C)(CCCS(=O)(=O)O)c2cc(S(=O)(=O)O)ccc21 (single isomer, unassigned) [550 Compound 1(isomer 1)-maleimide] | – | – | – | – | –
– | – | DyLight 649-SA (2.5X): DyLight 649 conjugated to streptavidin (SA); suffix gives molar excess of dye [reference compound] | 2.6 | 3.5 | 2.2 | 2.3 | Compound/Protein SA in borate purified by gel PDRR (streptavidin (SA); listed as DyLight 649-SA-4X): 2.9; Compound/Protein SA in borate purified by gel filtration (streptavidin (SA); listed as DyLight 649-SA-4X): 3.5
98 | 97 | COCCN1/C(=C/C=C/C2=[N+](CCCCCC(=O)NCCN3C(=O)C=CC3=O)c3ccc(S(=O)(=O)[O-])cc3C2(C)CCCS(=O)(=O)O)C(C)(CCCS(=O)(=O)O)c2cc(S(=O)(=O)O)ccc21 (single isomer, unassigned) [550 Compound 1(isomer 2)-maleimide] | – | – | – | – | –
– | – | COCCN1/C(=C/C=C/C2=[N+](CCCCCC(=O)O)c3ccc(S(=O)(=O)[O-])cc3C2(C)CCCS(=O)(=O)O)C(C)(CCCS(=O)(=O)O)c2cc(S(=O)(=O)O)ccc21 (stereo not shown) [550 Compound 1, 2-{(E)-3-[1-(5-carboxypentyl)-3-methyl-5-sulfo-3-(3-sulfopropyl)-1,3-dihydro-indol-(2E)-ylidene]-propenyl}-1-(2-methoxy-ethyl)-3-methyl-5-sulfo-3-(3-sulfo-propyl)-3H-indolium] | – | – | – | – | Immunofluorescence performance of conjugates compared with commercial DyLight dye (U2OS cells; A550 cells): at least similar performance to DyLight 549 conjugates (GAM, GAR), and in some cases superior performance
– | – | Cy5-SA (2.5X): Cy5 conjugated to streptavidin (SA) [reference compound] | 3.8 | 4.2 | 2.0 | 2.3 | Compound/Protein SA in borate purified by gel PDRR (streptavidin (SA); listed as Cy5-SA-4X): 3.3; Compound/Protein SA in borate purified by gel filtration (streptavidin (SA); listed as Cy5-SA-4X): 3.8
